{"source": "paper PMC3519889", "key": {"[1]": {"system": "NarP (SO3982), phosphorylated (Shewanella oneidensis)", "assay": "EMSA", "settings": "100 mM Tris/HCl pH 7.4, 20 mM KCl, 10 mM MgCl2, 2 mM DTT, 10% glycerol, 15 C, 60 min, ~2 nM probe, 2 ug poly(dI·dC); 4.8% native PAGE"}, "[2]": {"system": "NarP(D57N) (NarP#) (Shewanella oneidensis)", "assay": "EMSA", "settings": "no binding up to 2 uM, 100 mM Tris/HCl pH 7.4, 20 mM KCl, 10 mM MgCl2, 2 mM DTT, 10% glycerol, 15 C, 60 min, ~2 nM probe, 2 ug poly(dI·dC), 4.8% native PAGE"}}}
{"substance": "nrfA promoter fragment", "values": [{"measurement": "binding", "setting": "[1]", "result": "< 0.25", "unit": "µM"}, {"measurement": "binding", "setting": "[2]; not phosphorylation-treated", "result": "> 2", "unit": "µM"}, {"measurement": "binding", "setting": "[2]; treated with NarQ51-585 and ATP", "result": "> 2", "unit": "µM"}]}
